Experimental data: the supplement of paper PMC11196671

Tests used:
[1] = BHET released, HPLC; higher = more BHET released; extreme values may be limits of the assay; settings: 24 h
Method: (§1)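 Purified PET hydrolases, 2.5 ug enzyme on 3.5 mg amorphous PET film (aFilm) or crystalline PET powder (cryPow) in 0.5 mL of 50 mM buffer (NaCitrate pH 4.5/5.5, NaPhosphate 6.5/7.5, glycine 8.5/9.5) at 60 or 70 C with shaking for 24 h. Total aromatic product by UV-Vis (260/280 nm, blank-subtracted, normalised per mg enzyme) and individual TPA, MHET, BHET concentrations by UHPLC-DAD at 240 nm; duplicate reactions.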

[2] = MHET released, HPLC; higher = more MHET released; extreme values may be limits of the assay; settings: 24 h
Method: as §1

[3] = PET hydrolysis product formed (TPA+MHET+BHET, UV-Vis) per mg enzyme (mmol/mg enzyme); higher = more PET depolymerisation activity; extreme values may be limits of the assay; settings: 2 h
Method: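 Purified PET hydrolases (His-SUMO cleaved, E. coli C41(DE3) small-scale expression), 2.5 ug enzyme on 3.5 mg amorphous PET film (aFilm) or crystalline PET powder (cryPow) in 0.5 mL of 50 mM buffer (NaCitrate pH 4.5/5.5, NaPhosphate 6.5/7.5, glycine 8.5/9.5) at 60 or 70 C with shaking for 2 h. Soluble aromatic products (TPA+MHET+BHET) were quantified by UV-Vis at 260/280 nm, blank-subtracted against the no-enzyme control, and normalised per mg enzyme; duplicate reactions.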

[4] = as above; settings: 24 h
Method: as §1

ADNPYQRGPDPTNASIEAATGPFAVGTQPIVGASGFGGGQIYYPTDTSQTYGAVVIVPGFISVWAQLAWLGPRLASQGFVVIGIETSTITDLPDPRGDQALAALDWATTRSPVRSRIDRTRLAAAGWSMGGGGLRRAACQRPSLKAIVGMAPWNTEKNWSCVTVPTLFFGGSSDAVASPNDHAKPFYNSITRAEKDYIELCNADHFFPTSANTTMAKYFISWLKRWVDNDTRYTQFLCPGPSTGLFAPVCASMNTCPF [CaPETaseM9]
Settings	BHET released, [1] [mM]	MHET released, [2] [mM]	PET hydrolysis product formed, [3]	PET hydrolysis product formed, [4]
PET substrate: aFilm, 60 °C, pH 4.5	0	0.00378	0	0
PET substrate: aFilm, 60 °C, pH 5.5	0	0.0574	0	0.0213
PET substrate: aFilm, 60 °C, pH 6.5	0	0.106	0.00371	0.0426
PET substrate: aFilm, 60 °C, pH 7.5	0	0.299	0.0032	0.132
PET substrate: aFilm, 60 °C, pH 8.5	0	0.108	0.0152	0.0575
PET substrate: aFilm, 60 °C, pH 9.5	0	0.123	0	0.102
PET substrate: aFilm, 70 °C, pH 4.5	0	0	0	0
PET substrate: aFilm, 70 °C, pH 5.5	0	0	0	0
PET substrate: aFilm, 70 °C, pH 6.5	0	0	0	0
PET substrate: aFilm, 70 °C, pH 7.5	0	0	0	0
PET substrate: aFilm, 70 °C, pH 8.5	0	0.00345	0	0
PET substrate: aFilm, 70 °C, pH 9.5	0	0	0	0
PET substrate: cryPow, 60 °C, pH 4.5	0.00607	0.03643	0.0116	0.016
PET substrate: cryPow, 60 °C, pH 5.5	0	0.0852	0.0306	0.0317
PET substrate: cryPow, 60 °C, pH 6.5	0.00315	0.103	0.0384	0.0476
PET substrate: cryPow, 60 °C, pH 7.5	0	0.183	0.0693	0.0789
PET substrate: cryPow, 60 °C, pH 8.5	0	0.0922	0.0382	0.0427
PET substrate: cryPow, 60 °C, pH 9.5	0	0.0663	0.0436	0.0717
PET substrate: cryPow, 70 °C, pH 4.5	0	0	0	0
PET substrate: cryPow, 70 °C, pH 5.5	0	0.0148	0.00828	0.00351
PET substrate: cryPow, 70 °C, pH 6.5	0	0.0346	0.0134	0.0154
PET substrate: cryPow, 70 °C, pH 7.5	0	0.0406	0.0293	0.0196
PET substrate: cryPow, 70 °C, pH 8.5	0	0.0381	0.0155	0.0178
PET substrate: cryPow, 70 °C, pH 9.5	0	0	0.0183	0.0148

QDNPYERGPDPTEDSIEAIRGPFSVATERVSSFASGFGGGTIYYPRETDEGTFGAVAVAPGFTASQGSMSWYGERVASHGFIVFTIDTNTRLDAPGQRGRQLLAALDYLVERSDRKVRERLDPNRLAVMGHSMGGGGSLEATVMRPSLKASIPLTPWHLDKTWGQVQVPTFIIGAELDTIAPVSTHAKPFYESLPSSLPKAYMELCGATHFAPNIPNTTIAKYVISWLKRFVDEDTRYSQFLCPNPTDRAICEYRSTCPY [Cut190*SS]
Settings	BHET released, [1] [mM]	MHET released, [2] [mM]	PET hydrolysis product formed, [3]	PET hydrolysis product formed, [4]
PET substrate: aFilm, 60 °C, pH 4.5	0	0	0	0
PET substrate: aFilm, 60 °C, pH 5.5	0	0.00789	0	0
PET substrate: aFilm, 60 °C, pH 6.5	0.00205	0.04	0	0.0256
PET substrate: aFilm, 60 °C, pH 7.5	0.0117	0.208	0.00672	0.154
PET substrate: aFilm, 60 °C, pH 8.5	0	0.0945	0	0.0616
PET substrate: aFilm, 60 °C, pH 9.5	0	0.155	0.0106	0.162
PET substrate: aFilm, 70 °C, pH 4.5	0	0	0	0
PET substrate: aFilm, 70 °C, pH 5.5	0	0	0	0
PET substrate: aFilm, 70 °C, pH 6.5	0	0	0	0
PET substrate: aFilm, 70 °C, pH 7.5	0.00861	0.234	0.00376	0.191
PET substrate: aFilm, 70 °C, pH 8.5	0	0.00747	0	0
PET substrate: aFilm, 70 °C, pH 9.5	0	0.0894	0.0215	0.169
PET substrate: cryPow, 60 °C, pH 4.5	0	0	0	0
PET substrate: cryPow, 60 °C, pH 5.5	0.00623	0.0526	0	0.0274
PET substrate: cryPow, 60 °C, pH 6.5	0.00767	0.1	0.0096	0.0533
PET substrate: cryPow, 60 °C, pH 7.5	0.0058	0.202	0.0258	0.0968
PET substrate: cryPow, 60 °C, pH 8.5	0	0.171	0.0105	0.0772
PET substrate: cryPow, 60 °C, pH 9.5	0	0.11	0.0109	0.0813
PET substrate: cryPow, 70 °C, pH 4.5	0	0	0	0
PET substrate: cryPow, 70 °C, pH 5.5	0	0.00708	0	0
PET substrate: cryPow, 70 °C, pH 6.5	0	0.0193	0	0.00998
PET substrate: cryPow, 70 °C, pH 7.5	0	0.0639	0.00904	0.031
PET substrate: cryPow, 70 °C, pH 8.5	0	0.02402	0	0.0112
PET substrate: cryPow, 70 °C, pH 9.5	0	0.00359	0.00521	0.0149
